Experimental data reported in article PMC7854383, “Cellular Uptake of Psychostimulants – Are High- and Low-Affinity Organic Cation Transporters Drug Traffickers?” (Frontiers in Pharmacology, 2021).

Legend:
OCT3 = target: T1, OCT3 (Homo sapiens, UniProt O75751); experiment: Screening of cellular uptake at 1 µM, OCT3-overexpressing HEK293 cells over empty vector control cells; assay type: in vitro ADME; details: 2 min
T1 construct: Koepsell and Gorbulev (University of Würzburg); host or cells: HEK293
T1 sequence (O75751 1-556): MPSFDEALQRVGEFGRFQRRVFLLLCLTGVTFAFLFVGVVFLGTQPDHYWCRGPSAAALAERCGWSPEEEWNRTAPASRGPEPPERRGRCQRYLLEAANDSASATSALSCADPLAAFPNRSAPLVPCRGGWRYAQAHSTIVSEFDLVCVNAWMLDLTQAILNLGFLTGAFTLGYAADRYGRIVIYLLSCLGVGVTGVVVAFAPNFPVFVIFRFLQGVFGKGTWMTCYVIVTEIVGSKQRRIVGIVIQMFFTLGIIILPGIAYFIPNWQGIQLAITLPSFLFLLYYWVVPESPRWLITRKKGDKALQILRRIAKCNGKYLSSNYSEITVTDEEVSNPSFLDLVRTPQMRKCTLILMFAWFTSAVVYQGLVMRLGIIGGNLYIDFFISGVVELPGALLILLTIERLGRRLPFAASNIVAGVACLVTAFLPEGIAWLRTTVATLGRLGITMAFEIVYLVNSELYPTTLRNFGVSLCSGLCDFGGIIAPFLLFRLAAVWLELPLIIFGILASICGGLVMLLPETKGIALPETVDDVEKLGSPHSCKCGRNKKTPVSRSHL
Excerpt: (§1) Koepsell and Gorbulev (University of Würzburg, Germany).
(§2) Eighteen psychostimulants and hallucinogens were initially screened for their potential to be substrates for different polyspecific OCTs and high-affinity monoamine neurotransmitter transporters (Figure 3), as well as for the efflux transporter MATE2-K (Supplementary Figure S1).

[1] = cited from earlier work
OCT2 = target: T2, OCT2 (Homo sapiens, UniProt O15244); experiment: Screening of cellular uptake at 1 µM, OCT2-overexpressing HEK293 cells over empty vector control cells; details: 2 min
T2 sequence (O15244 1-555 S270A): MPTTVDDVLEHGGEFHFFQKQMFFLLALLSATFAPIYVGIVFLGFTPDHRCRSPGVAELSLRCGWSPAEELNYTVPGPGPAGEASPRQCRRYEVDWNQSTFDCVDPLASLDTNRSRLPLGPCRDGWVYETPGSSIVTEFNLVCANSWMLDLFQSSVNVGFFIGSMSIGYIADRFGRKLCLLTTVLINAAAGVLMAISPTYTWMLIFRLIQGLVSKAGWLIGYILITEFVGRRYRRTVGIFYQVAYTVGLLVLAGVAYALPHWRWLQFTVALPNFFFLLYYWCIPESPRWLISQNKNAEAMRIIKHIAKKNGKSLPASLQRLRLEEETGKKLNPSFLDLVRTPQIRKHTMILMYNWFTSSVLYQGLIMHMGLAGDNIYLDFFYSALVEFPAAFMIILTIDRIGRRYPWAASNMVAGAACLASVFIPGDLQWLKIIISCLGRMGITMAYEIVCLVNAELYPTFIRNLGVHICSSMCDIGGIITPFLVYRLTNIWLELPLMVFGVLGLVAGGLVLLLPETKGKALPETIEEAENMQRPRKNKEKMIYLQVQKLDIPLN
Excerpt: as §1, §2

wild-type OCT2 = target: T3, wild-type OCT2 (Homo sapiens, UniProt O15244); experiment: Concentration-dependent transport by wild-type OCT2 in HEK293 cells; details: for vmax: OCT2 WT
T3 sequence (O15244 1-555 S270A): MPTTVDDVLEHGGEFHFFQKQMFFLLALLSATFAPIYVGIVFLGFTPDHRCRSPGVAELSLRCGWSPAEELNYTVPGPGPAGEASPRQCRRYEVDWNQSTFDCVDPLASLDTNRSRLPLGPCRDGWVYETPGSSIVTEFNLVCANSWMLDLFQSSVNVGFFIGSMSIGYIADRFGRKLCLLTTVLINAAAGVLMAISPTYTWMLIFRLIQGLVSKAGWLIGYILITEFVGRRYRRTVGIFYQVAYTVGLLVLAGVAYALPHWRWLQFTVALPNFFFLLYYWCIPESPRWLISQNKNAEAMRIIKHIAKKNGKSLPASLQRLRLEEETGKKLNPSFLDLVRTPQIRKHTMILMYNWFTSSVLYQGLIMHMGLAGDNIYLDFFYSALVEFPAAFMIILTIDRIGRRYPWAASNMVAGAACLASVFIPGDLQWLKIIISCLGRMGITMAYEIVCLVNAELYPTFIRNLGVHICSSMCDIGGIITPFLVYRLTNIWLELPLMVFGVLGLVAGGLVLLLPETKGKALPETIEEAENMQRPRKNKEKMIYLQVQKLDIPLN

OCT2 variant A270S = target: T4, OCT2 variant A270S (Homo sapiens, UniProt O15244); experiment: Concentration-dependent transport by OCT2 variant A270S in HEK293 cells; details: OCT2 A270S
T4 sequence (O15244 1-555): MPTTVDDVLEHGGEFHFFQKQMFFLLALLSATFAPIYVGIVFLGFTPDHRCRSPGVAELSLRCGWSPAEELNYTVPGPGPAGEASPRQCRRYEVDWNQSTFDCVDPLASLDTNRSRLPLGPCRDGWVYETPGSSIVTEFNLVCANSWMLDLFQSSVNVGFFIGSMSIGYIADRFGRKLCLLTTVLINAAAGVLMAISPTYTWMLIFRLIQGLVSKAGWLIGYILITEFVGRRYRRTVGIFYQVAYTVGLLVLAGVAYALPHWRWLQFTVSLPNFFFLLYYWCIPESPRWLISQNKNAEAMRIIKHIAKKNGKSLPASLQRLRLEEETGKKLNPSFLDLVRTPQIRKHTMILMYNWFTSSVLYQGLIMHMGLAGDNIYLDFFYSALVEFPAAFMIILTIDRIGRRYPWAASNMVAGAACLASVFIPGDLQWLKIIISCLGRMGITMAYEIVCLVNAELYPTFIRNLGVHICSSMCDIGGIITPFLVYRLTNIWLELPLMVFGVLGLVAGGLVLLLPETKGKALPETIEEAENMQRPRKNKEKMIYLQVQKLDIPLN

SERT = SERT (Homo sapiens, UniProt P31645); experiment: Screening of cellular uptake at 1 µM, SERT-overexpressing HEK293 cells over empty vector control cells; assay type: in vitro ADME; details: 2 min
not read [2] = substrate: CN(C)CCc1c[nH]c2ccccc12; experiment: not read; details: pH 7.4
not read [3] = substrate: CNC(C)Cc1ccc(OC)cc1; experiment: not read; details: pH 7.4
not read [4] = substrate: CN[C@@H](C)[C@H](O)c1ccccc1; experiment: not read; details: pH 7.4, 37.0 °C
not read [5] = substrate: CN[C@@H](C)Cc1ccccc1; experiment: not read; details: other: OCT2 A270S; pH 7.4; 37.0 °C
not read [6] = substrate: COc1cc(CCN)cc(OC)c1OC; experiment: not read; details: other: OCT1*1 (WT); net transport, 2 min; pH 7.4; 37.0 °C

Sequence of SERT (P31645 whole entry): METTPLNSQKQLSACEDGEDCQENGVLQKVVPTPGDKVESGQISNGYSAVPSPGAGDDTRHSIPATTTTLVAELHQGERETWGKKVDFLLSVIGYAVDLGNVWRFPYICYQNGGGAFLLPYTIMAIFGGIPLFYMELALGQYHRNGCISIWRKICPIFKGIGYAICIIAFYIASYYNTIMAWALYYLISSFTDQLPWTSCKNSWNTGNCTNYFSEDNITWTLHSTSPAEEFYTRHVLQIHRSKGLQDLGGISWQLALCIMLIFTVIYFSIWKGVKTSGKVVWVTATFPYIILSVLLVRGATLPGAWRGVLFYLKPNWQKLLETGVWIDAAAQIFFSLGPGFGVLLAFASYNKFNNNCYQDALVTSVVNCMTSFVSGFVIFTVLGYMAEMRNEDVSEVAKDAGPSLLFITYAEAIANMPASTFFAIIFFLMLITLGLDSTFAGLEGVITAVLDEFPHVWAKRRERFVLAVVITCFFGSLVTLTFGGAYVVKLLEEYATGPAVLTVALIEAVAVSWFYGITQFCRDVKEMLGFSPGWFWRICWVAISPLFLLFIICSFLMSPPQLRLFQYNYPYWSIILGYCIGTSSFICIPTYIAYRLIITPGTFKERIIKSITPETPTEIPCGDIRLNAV

CC(N)Cc1ccccc1 (stereo not shown) [Amphetamine]
ratio of uptake in transporter-transfected cells over empty vector control cells (OCT3): does not appear to be a substrate

C[C@H](N)C(=O)c1ccccc1 [Cathinone]
renal elimination (unchanged in urine) ([1]; ref Kalix and Braenden, 1985, Toennes and Kauert, 2002): 2–7%

CN(C)CCc1c[nH]c2ccccc12 [DMT, dimethyltryptamine]
ratio of uptake in transporter-transfected cells over empty vector control cells (OCT2): approximately 3 fold
excreted unchanged in urine ([1]; following intramuscular administration, ref Sitaram et al., 1987, Barker, 2018): 0.16%

CN[C@@H](C)Cc1ccccc1 [Methylamphetamine]
ratio of uptake in transporter-transfected cells over empty vector control cells (OCT2): 4- to 6 fold
renal elimination ([1]; ref Toennes and Kauert, 2002, www.dosing.de and www.drugbank.ca): 30–54%
vmax (wild-type OCT2; listed as Methamphetamine): 70.7 (± 8.3) pmol × mg protein^-1 × min^-1
vmax (wild-type OCT2; listed as methamphetamine): 70.7 ± 8.3 pmol × mg protein^-1 × min^-1
Km at 2 min (wild-type OCT2; human, pH 7.4): 11.9 µM
vmax (OCT2 variant A270S): 34.5 (± 8.5) pmol × mg protein^-1 × min^-1

COc1ccc(CC(C)N)cc1 (stereo not shown) [PMA, para-methoxyamphetamine]
ratio of uptake in transporter-transfected cells over empty vector control cells (SERT): slightly higher (albeit still low) uptake

CNC(C)Cc1ccc(OC)cc1 (stereo not shown) [PMMA, para-methoxymethamphetamine]
ratio of uptake in transporter-transfected cells over empty vector control cells (OCT2): approximately 3 fold
ratio of uptake in transporter-transfected cells over empty vector control cells (SERT): slightly higher (albeit still low) uptake

B1: wild-type OCT2 (Homo sapiens; S270A) (protein)
chain: MPTTVDDVLEHGGEFHFFQKQMFFLLALLSATFAPIYVGIVFLGFTPDHRCRSPGVAELSLRCGWSPAEELNYTVPGPGPAGEASPRQCRRYEVDWNQSTFDCVDPLASLDTNRSRLPLGPCRDGWVYETPGSSIVTEFNLVCANSWMLDLFQSSVNVGFFIGSMSIGYIADRFGRKLCLLTTVLINAAAGVLMAISPTYTWMLIFRLIQGLVSKAGWLIGYILITEFVGRRYRRTVGIFYQVAYTVGLLVLAGVAYALPHWRWLQFTVALPNFFFLLYYWCIPESPRWLISQNKNAEAMRIIKHIAKKNGKSLPASLQRLRLEEETGKKLNPSFLDLVRTPQIRKHTMILMYNWFTSSVLYQGLIMHMGLAGDNIYLDFFYSALVEFPAAFMIILTIDRIGRRYPWAASNMVAGAACLASVFIPGDLQWLKIIISCLGRMGITMAYEIVCLVNAELYPTFIRNLGVHICSSMCDIGGIITPFLVYRLTNIWLELPLMVFGVLGLVAGGLVLLLPETKGKALPETIEEAENMQRPRKNKEKMIYLQVQKLDIPLN
Km (not read [2]; other: OCT2 WT): 13.0 (± 3.7) μM
Vmax (not read [2]; other: OCT2 WT): 296.7 (± 23.3) pmol × mg protein^-1 × min^-1
Km (not read [3]; other: OCT2 WT): 7.9 (± 2.6) μM
Vmax (not read [3]; other: OCT2 WT): 225.1 (± 19.3) pmol × mg protein^-1 × min^-1
Km (not read [4]; other: OCT2 WT): 15.7 (± 4.6) μM
Vmax (not read [4]; other: OCT2 WT): 417.8 (± 35.6) pmol × mg protein^-1 × min^-1

B2: OCT2 variant A270S (Homo sapiens) (protein)
chain: MPTTVDDVLEHGGEFHFFQKQMFFLLALLSATFAPIYVGIVFLGFTPDHRCRSPGVAELSLRCGWSPAEELNYTVPGPGPAGEASPRQCRRYEVDWNQSTFDCVDPLASLDTNRSRLPLGPCRDGWVYETPGSSIVTEFNLVCANSWMLDLFQSSVNVGFFIGSMSIGYIADRFGRKLCLLTTVLINAAAGVLMAISPTYTWMLIFRLIQGLVSKAGWLIGYILITEFVGRRYRRTVGIFYQVAYTVGLLVLAGVAYALPHWRWLQFTVSLPNFFFLLYYWCIPESPRWLISQNKNAEAMRIIKHIAKKNGKSLPASLQRLRLEEETGKKLNPSFLDLVRTPQIRKHTMILMYNWFTSSVLYQGLIMHMGLAGDNIYLDFFYSALVEFPAAFMIILTIDRIGRRYPWAASNMVAGAACLASVFIPGDLQWLKIIISCLGRMGITMAYEIVCLVNAELYPTFIRNLGVHICSSMCDIGGIITPFLVYRLTNIWLELPLMVFGVLGLVAGGLVLLLPETKGKALPETIEEAENMQRPRKNKEKMIYLQVQKLDIPLN
Km (not read [2]; other: OCT2 A270S): 14.2 (± 7.9) μM
Vmax (not read [2]; other: OCT2 A270S): 164.2 (± 25.9) pmol × mg protein^-1 × min^-1
Km (not read [3]; other: OCT2 A270S): 14.4 (± 8.6) μM
Vmax (not read [3]; other: OCT2 A270S): 172.1 (± 31.5) pmol × mg protein^-1 × min^-1
Km (not read [5]): 24.3 (± 17.0) μM
Km (not read [4]; other: OCT2 A270S): 14.7 (± 4.1) μM
Vmax (not read [4]; other: OCT2 A270S): 229.5 (± 18.2) pmol × mg protein^-1 × min^-1

B3: OCT1*1 (WT) (Homo sapiens) (protein)
chain: MPTVDDILEQVGESGWFQKQAFLILCLLSAAFAPICVGIVFLGFTPDHHCQSPGVAELSQRCGWSPAEELNYTVPGLGPAGEAFLGQCRRYEVDWNQSALSCVDPLASLATNRSHLPLGPCQDGWVYDTPGSSIVTEFNLVCADSWKLDLFQSCLNAGFLFGSLGVGYFADRFGRKLCLLGTVLVNAVSGVLMAFSPNYMSMLLFRLLQGLVSKGNWMAGYTLITEFVGSGSRRTVAIMYQMAFTVGLVALTGLAYALPHWRWLQLAVSLPTFLFLLYYWCVPESPRWLLSQKRNTEAIKIMDHIAQKNGKLPPADLKMLSLEEDVTEKLSPSFADLFRTPRLRKRTFILMYLWFTDSVLYQGLILHMGATSGNLYLDFLYSALVEIPGAFIALITIDRVGRIYPMAMSNLLAGAACLVMIFISPDLHWLNIIIMCVGRMGITIAIQMICLVNAELYPTFVRNLGVMVCSSLCDIGGIITPFIVFRLREVWQALPLILFAVLGLLAAGVTLLLPETKGVALPETMKDAENLGRKAKPKENTIYLKVQTSEPSGT
Km (not read [6]): 24.3 (±6.3) µM
Vmax (not read [6]): 0.000642 µmol/min/mg
